From US5866392A, “Cellobiose oxidase, and enzymatic agent and a process for treating paper pulp” (priority 1992, dated 1999)
Like-named read-outs stand apart in the source and are kept apart here.

Columns and labels:
EG A (cellulase) = experiment: Coupled cellobiose oxidase/DCPIP assay for cellulases; type: biochemical; conditions: reduced cellodextrin substrate
Description: (§1) The ability of the cellobiose oxidase to oxidize cellodextrins by means of an electron acceptor was utilized in an assay for cellulases. […] With this assay the kinetic constants for reduced cellodextrins of 5 different cellulases have been determined (table 2). […] The enzymes show very different substrate specificity, some of them requiring quite long substrates making it impossible to use the umbelliferyl cellobiosides and lactosides available for steady state kinetic.

EG C (cellulase) = experiment: as above; type: biochemical; conditions: reduced cellodextrin substrate
Description: as §1

Endo B (cellulase) = experiment: as above; type: biochemical; conditions: reduced cellodextrin substrate
Description: as §1

[1] = tested on: Endo (cellulase, first line of the table); experiment: as above; type: biochemical; conditions: reduced cellodextrin substrate
Description: as §1

CBH II (cellulase) = target: T1, CBH II (cellulase) (Humicola insolens, UniProt Q9C1S9); experiment: as above; type: biochemical; conditions: for Ki: coupled CBO/DCPIP assay, read-out: KL (inhibition constant)
T1 sequence (Q9C1S9 17-476): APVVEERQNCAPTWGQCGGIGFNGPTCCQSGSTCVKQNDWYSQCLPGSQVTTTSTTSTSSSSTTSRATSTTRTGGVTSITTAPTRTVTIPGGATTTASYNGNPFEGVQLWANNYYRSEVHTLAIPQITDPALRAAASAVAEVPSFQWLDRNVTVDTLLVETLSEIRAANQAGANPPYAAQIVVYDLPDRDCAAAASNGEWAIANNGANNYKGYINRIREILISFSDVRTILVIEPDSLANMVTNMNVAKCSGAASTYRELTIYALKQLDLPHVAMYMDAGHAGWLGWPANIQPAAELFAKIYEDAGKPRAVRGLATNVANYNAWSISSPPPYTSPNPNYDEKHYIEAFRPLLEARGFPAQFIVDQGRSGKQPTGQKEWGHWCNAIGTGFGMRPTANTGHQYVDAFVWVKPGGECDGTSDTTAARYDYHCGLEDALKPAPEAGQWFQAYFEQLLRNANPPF
Description: as §1, with “kinetic. […] The inhibition constants were determined for two cellulases using the developed assay.” for “kinetic.”

Endo A (cellulase) = experiment: as above; type: biochemical; conditions: coupled CBO/DCPIP assay
Description: The ability of the cellobiose oxidase to oxidize cellodextrins by means of an electron acceptor was utilized in an assay for cellulases. By using a substrate without a reducing end, such as a reduced cellodextrin, the reducing ends formed by the hydrolysis by the cellulase will be oxidized by the CBO. Simultaneously the coloured electron acceptor, dichlorophenolindophenol (DCPIP), is reduced by cellobiose oxidase to a colourless compound making it possible to follow the reaction spectrophotometrically at 600 nm DCPIP was chosen as electron acceptor because of its high extinction coefficient.
The inhibitors methyl 4-thiocellotrioside, methyl 4-thiocellotetraoside and methyl 4-thiocellopentaoside were synthesized at the laboratory in Grenoble^5. The inhibition constants were determined for two cellulases using the developed assay.

[2] = substrate: OC[C@H]1O[C@@H](O[C@H]2[C@H](O)[C@@H](O)C(O)O[C@@H]2CO)[C@H](O)[C@@H](O)[C@@H]1O; experiment: purified protein, by the assay type; conditions: other: sugar + 90 μM DCPIP, 0.1M sodium phosphate buffer, pH 7.5, 40° C.
Description: (§2) The measurements were performed in 0.1M sodium phosphate buffer at pH 7.5 at 40° C. 450 μl of a mixture of 100 μM of 2,6-Dichlorophenol-indophenol (DCPIP, Merck), 250 μM of cellobiose (Sigma) were mixed with 50 μl enzyme. Units of activity equals μmol cellobiose oxidized (DCPIP reduced) per min.
(§3) All measurements were performed in 0.1M sodium phosphate buffer, pH 7.5, at 40° C. […] The reactions were monitored for 400 s as changes in absorbance at the appropirate wavelength (see above). […] The catalytic constants (kcat) were expressed as mol of oxidized cellobiose/s/mol of enzyme. […] The kinetic constants were determined using Lineweaver-Burke plots and were the result of dual determinations.

[3] = substrate: OC[C@H]1O[C@@H](O[C@H]2[C@H](O)[C@@H](O)C(O)O[C@@H]2CO)[C@H](O)[C@@H](O)[C@H]1O; experiment: purified protein, by the assay type; conditions: other: sugar + 90 μM DCPIP, 0.1M sodium phosphate buffer, pH 7.5, 40° C.
Description: as §2, §3

[4] = substrate: OC[C@H]1O[C@@H](O[C@H]2[C@H](O)[C@@H](O)[C@H](O[C@H]3[C@H](O)[C@@H](O)C(O)O[C@@H]3CO)O[C@@H]2CO)[C@H](O)[C@@H](O)[C@@H]1O; experiment: purified protein, by the assay type; conditions: other: sugar + 90 μM DCPIP, 0.1M sodium phosphate buffer, pH 7.5, 40° C.
[5] = substrate: OC[C@H]1O[C@@H](O[C@H]2[C@H](O)[C@@H](O)[C@H](O[C@H]3[C@H](O)[C@@H](O)[C@H](O[C@H]4[C@H](O)[C@@H](O)C(O)O[C@@H]4CO)O[C@@H]3CO)O[C@@H]2CO)[C@H](O)[C@@H](O)[C@@H]1O; experiment: purified protein, by the assay type; conditions: other: sugar + 90 μM DCPIP, 0.1M sodium phosphate buffer, pH 7.5, 40° C.
[6] = substrate: O=C1C(Cl)=CC(=Nc2ccc(O)cc2)C=C1Cl; experiment: purified protein, by the assay type; conditions: other: electron acceptor + 225 μM cellobiose, 0.1M sodium phosphate buffer, pH 7.5, 40° C.
Description: as §2, §3

[7] = substrate: OC[C@H]1O[C@H](O[C@H]2[C@H](O)[C@@H](O)[C@H](O)O[C@@H]2CO)[C@H](O)[C@@H](O)[C@@H]1O; experiment: purified protein, by the assay type; conditions: other: sugar + 90 μM DCPIP, 0.1M sodium phosphate buffer, pH 7.5, 40° C.
Description: as §2, §3

[8] = substrate: CN(C)c1ccc2nc3ccc(=[N+](C)C)cc-3sc2c1; experiment: purified protein, by the assay type; conditions: other: electron acceptor + 225 μM cellobiose, 0.1M sodium phosphate buffer, pH 7.5, 40° C.
[9] = substrate: CC(C)(C)C1=CC(=O)C(=O)C(C(C)(C)C)=C1; experiment: purified protein, by the assay type; conditions: other: electron acceptor + 225 μM cellobiose, 0.1M sodium phosphate buffer, pH 7.5, 40° C.
[10] = substrate: OC[C@@H](O)[C@@H](O[C@@H]1O[C@H](CO)[C@@H](O[C@@H]2O[C@H](CO)[C@@H](O[C@@H]3O[C@H](CO)[C@@H](O[C@@H]4O[C@H](CO)[C@@H](O[C@@H]5O[C@H](CO)[C@@H](O)[C@H](O)[C@H]5O)[C@H](O)[C@H]4O)[C@H](O)[C@H]3O)[C@H](O)[C@H]2O)[C@H](O)[C@H]1O)[C@H](O)[C@@H](O)CO; experiment: Coupled cellobiose oxidase/DCPIP assay for cellulases; type: biochemical; conditions: other: CBH II; reduced cellodextrin substrate
Description: as §1, with “kinetic. […] The inhibition constants were determined for two cellulases using the developed assay.” for “kinetic.”

[11] = substrate: OC[C@@H](O)[C@@H](O[C@@H]1O[C@H](CO)[C@@H](O[C@@H]2O[C@H](CO)[C@@H](O[C@@H]3O[C@H](CO)[C@@H](O)[C@H](O)[C@H]3O)[C@H](O)[C@H]2O)[C@H](O)[C@H]1O)[C@H](O)[C@@H](O)CO; experiment: as above; type: biochemical; conditions: other: CBH II; reduced cellodextrin substrate
Description: as §1, with “kinetic. […] The inhibition constants were determined for two cellulases using the developed assay.” for “kinetic.”

[12] = substrate: OC[C@@H](O)[C@@H](O[C@@H]1O[C@H](CO)[C@@H](O[C@@H]2O[C@H](CO)[C@@H](O[C@@H]3O[C@H](CO)[C@@H](O[C@@H]4O[C@H](CO)[C@@H](O)[C@H](O)[C@H]4O)[C@H](O)[C@H]3O)[C@H](O)[C@H]2O)[C@H](O)[C@H]1O)[C@H](O)[C@@H](O)CO; experiment: as above; type: biochemical; conditions: other: CBH II; reduced cellodextrin substrate
Description: as §1, with “kinetic. […] The inhibition constants were determined for two cellulases using the developed assay.” for “kinetic.”

[13] = read-out: KL (inhibition constant)
[14] = read-out: KLS (inhibition constant)

Molecule: OC[C@@H](O)[C@@H](O[C@@H]1O[C@H](CO)[C@@H](O[C@@H]2O[C@H](CO)[C@@H](O)[C@H](O)[C@H]2O)[C@H](O)[C@H]1O)[C@H](O)[C@@H](O)CO [Red. DP3]
- kcat (EG A (cellulase)): 0 s⁻¹
- kcat (EG C (cellulase)): 0 s⁻¹
- kcat (Endo B (cellulase)): 0 s⁻¹
- Km [1]: 500 µM
- kcat [1]: 0.24 s⁻¹
- kcat (CBH II (cellulase); reduced cellodextrin substrate): 0 s⁻¹

Molecule: methyl 4-thiocellopentaoside [S-DP5]
- Ki (Endo A (cellulase); [13]): 35 µM
- Ki (CBH II (cellulase)): 15 µM

Molecule: methyl 4-thiocellotetraoside [S-DP4]
- Ki (Endo A (cellulase); [13]): 75 µM
- Ki (Endo A (cellulase); [14]): 1000 µM
- Ki (CBH II (cellulase)): 270 µM

Molecule: methyl 4-thiocellotrioside [S-DP3]
- Ki (Endo A (cellulase); [13]): 300 µM
- Ki (Endo A (cellulase); [14]): 2000 µM
- Ki (CBH II (cellulase)): 1400 µM

B1: Humicola insolens cellobiose oxidase (CBO, 92 kDa, pI 4.0) (Mycothermus thermophilus) (protein)
chain: QATGDAYTDSETGIKFQTWSPDPQFTFGLALPPDALEKDATEYIGLLRCTRADPSDPGYCGLSHGQVGQMTQSLLLVAWAYENQVYTSFRYATGYTLPGLYTGNAKLTQLSVNITDTSFELIYRCENCFSWEHEGSTGSSSTSQGYLVLGRASARRGVVGPTCPDTATFGFHDNGFGQWGVGLENAVSEQYSEWASLPGLTVETTCEGSGPGEAQCVPAPEETYDYIVVGAGAGGIPVADKLSEAGHKVLLIEKGPPSTGRWQGTMKPEWLEGTDLTRFDVPGLCNQIWVDSAGIACTDTDQMAGCVLGGGTAVNAGLWWKPIDLDWDENFPEGWHSQDLAAATERVFERIPGTWHPSMDGKLYRDEGYKVLSSGLAESGWKEVVANEVPNEKNRTFAHTHFMFAGGERNGPLATYLVSADARENFSLWTNTAVRRAVRTGGKVTGVELECLTDGGYSGIVKLNEGGGVIFSAGAFGSAKLLFRSGIGPEDQLRVVASSKDGEDFIDEKDWIKLPVGYNLIDHLNTDLILTHPDVVFYDFYEAWTTPIEADKQLYLEQRSGILAQAAPNIGPMMWEQVTPSDGITRQFQWTARVEGDSRFTNSSHAMTLSQYLGRGVVSRGRATITQGLVTTVAEHPYLHNAGDKEAVIQGIKNLIESLNVIPNITWVLPPPGSTVEEYVDSLLVSASARRSNHWMGTAKLGTDDGRYGGTSVVDLDTKVYGTDNLFVVDASIFPGMSTGNPSAMIVIAAEQAAERILKLRK
- Km [2]: 11 µM
- kcat [2]: 10 s⁻¹
- Km [3]: 51 µM
- kcat [3]: 10 s⁻¹
- Km [4]: 19 µM
- Km [5]: 21 µM
- Km [6]: 26 µM
- kcat [6]: 12 s⁻¹
- Km [7]: 11,000 μM
- kcat [7]: 0.83 s⁻¹
- Km [8]: 18 µM
- kcat [8]: 1.85 s⁻¹
- Km [9]: 132 µM

B2: CBH II (cellulase) (Mycothermus thermophilus) (protein)
chain: APVVEERQNCAPTWGQCGGIGFNGPTCCQSGSTCVKQNDWYSQCLPGSQVTTTSTTSTSSSSTTSRATSTTRTGGVTSITTAPTRTVTIPGGATTTASYNGNPFEGVQLWANNYYRSEVHTLAIPQITDPALRAAASAVAEVPSFQWLDRNVTVDTLLVETLSEIRAANQAGANPPYAAQIVVYDLPDRDCAAAASNGEWAIANNGANNYKGYINRIREILISFSDVRTILVIEPDSLANMVTNMNVAKCSGAASTYRELTIYALKQLDLPHVAMYMDAGHAGWLGWPANIQPAAELFAKIYEDAGKPRAVRGLATNVANYNAWSISSPPPYTSPNPNYDEKHYIEAFRPLLEARGFPAQFIVDQGRSGKQPTGQKEWGHWCNAIGTGFGMRPTANTGHQYVDAFVWVKPGGECDGTSDTTAARYDYHCGLEDALKPAPEAGQWFQAYFEQLLRNANPPF
- Km [10]: 4.7 µM
- Km [11]: 490 µM
- Km [12]: 3 µM
